Molecular target: SH2-GFP-tail substrate with the SH2 domain of human Abl1 (human; yeast) (UniProt P00519)
Test: cell-based or functional assay

Chain of UniProt P00519 (P00519 other isoform, or with tags, fused parts or gaps, form in doubt): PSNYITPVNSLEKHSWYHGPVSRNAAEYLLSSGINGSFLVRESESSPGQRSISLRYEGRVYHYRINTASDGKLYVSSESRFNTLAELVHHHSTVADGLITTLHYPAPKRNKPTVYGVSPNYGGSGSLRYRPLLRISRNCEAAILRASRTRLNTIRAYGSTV

| substrate turnovers per degradon molecule (10 nM degradon, varied substrate, GFP fluorescence) [times] | substrate amount in cell lysate (SDS-PAGE, Typhoon fluorescence, ImageJ) [fold] | Substance |
| --- | --- | --- |
| 5 | – | UbL-mB^HA4 degradon (yeast Rad23 UbL domain fused N-terminally to the HA4 monobody) (from UniProt P32628 1-77) (designed binder) |
| – | 4 | FLAG-hUbL-mB^HA4 (binding degradon; human Rad23b UbL domain fused N-terminally to the HA4 monobody) (from UniProt P54727 1-83) (designed binder) |

Source: patent US20180327462A1
